What was measured:
[1] = target: T1, human CB2 (human, UniProt P34972 1-360); experiment: flow cytometry on TRex-CHO cells stably transfected with human CB2, PE-conjugated anti-human Fc secondary antibody
T1 construct: whole, on cells; also called TRexCHO Human CB2
Experimental: (§1) Cells were then centrifuged at 4° C. at 1600 rpm for 3 minutes; supernatant was aspirated and cells were washed with 200 μL FACS buffer. The washing procedure was repeated twice. After the final wash, cells were re-suspended in FACS buffer containing PE-conjugated anti-human Fc secondary antibody (1:200 dilutions) and incubated at 4° C. for 30 minutes. Cells were washed with 200 μL FACS buffer twice and analyzed by flow cytometry (Guava). Data analysis and measurement of binding affinity (KD) was performed using GraphPad Prism software.
(§2) Specifically, binding selectivity for CB1 over CB2 was determined. Cross reactivity to mouse CB1 was also determined. For detecting expression of mouse CB1, 100 μL of 1×10⁶ cells/mL of cells were incubated with anti-CB1 rabbit polyclonal antibody (Santa Cruz) at 1 μg/100 μL on ice for 30 min. […] 100 μL of 1×10⁶ cells/mL of cells were incubated with anti-CB2 antibody at 0.5 μg/100 μL on ice for 30 minutes. After incubation, cells were then centrifuged at 4° C. at 1600 rpm for 3 minutes; supernatant was aspirated and cells were washed with 200 μL FACS buffer. The procedure was repeated twice. […] Cells were washed with 200 μL FACS buffer twice and analyzed by flow cytometry (Guava). […] Data analysis and measurement of binding affinity (KD) was performed using GraphPad Prism software.

[2] = target: T2, native full length human CB1 receptor (cannabinoid 1 receptor) (human, UniProt P21554 1-472); experiment: flow cytometry on CB1-expressing cells after 24 h in human serum at 37 C
T2 construct: whole, on cells; also called A156; Native human CB1 TRex CHO A156
T2 sequence (P21554 whole entry): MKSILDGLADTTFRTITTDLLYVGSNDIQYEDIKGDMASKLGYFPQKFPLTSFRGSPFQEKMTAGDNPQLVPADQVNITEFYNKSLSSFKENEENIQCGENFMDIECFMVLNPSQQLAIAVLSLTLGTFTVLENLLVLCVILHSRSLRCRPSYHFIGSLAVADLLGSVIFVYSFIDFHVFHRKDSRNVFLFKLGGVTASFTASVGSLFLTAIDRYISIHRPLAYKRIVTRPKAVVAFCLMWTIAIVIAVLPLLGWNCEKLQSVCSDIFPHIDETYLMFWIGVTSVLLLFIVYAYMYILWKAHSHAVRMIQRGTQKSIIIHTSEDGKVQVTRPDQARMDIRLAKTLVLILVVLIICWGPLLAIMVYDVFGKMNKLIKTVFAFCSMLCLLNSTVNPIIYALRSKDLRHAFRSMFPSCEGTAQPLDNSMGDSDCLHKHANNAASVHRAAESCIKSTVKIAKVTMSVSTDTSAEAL
Experimental: (§3) Human serum was obtained from Sigma. Non-Human Primate serum was collected by Crown Bioscience. In an Eppendorf tube, 950 μL serum was mixed with 50 μL IgG at final conc. […] Samples of 200 μL were taken at time points 0, 24, 48, and 72 hours for flow cytometry binding assay using CB1-expressing cells.

[3] = target: T2, native full length human CB1 receptor …; experiment: flow cytometry, TRex-CHO human CB1 cells; mean ± SD
Experimental: (§4) TRex CHO parental cells, and TRex-CHO cells stably transfected with tetracycline inducible human CB1, human CB2 or mouse CB1 expression constructs were harvested. […] Cells were then centrifuged at 4° C. at 1600 rpm for 3 minutes; supernatant was aspirated and cells were washed with 200 μL FACS buffer. The washing procedure was repeated twice. After the final wash, cells were re-suspended in FACS buffer containing PE-conjugated anti-human Fc secondary antibody (1:200 dilutions) and incubated at 4° C. for 30 minutes. Cells were washed with 200 μL FACS buffer twice and analyzed by flow cytometry (Guava). Data analysis and measurement of binding affinity (KD) was performed using GraphPad Prism software.

[4] = target: T2, native full length human CB1 receptor …; experiment: flow cytometry on CB1-expressing cells after 72 h in NHP serum at 37 C
Experimental: as §3

[5] = target: T2, native full length human CB1 receptor …; experiment: cell-based or functional assay
[6] = target: T2, native full length human CB1 receptor …; experiment: flow cytometry on CB1-expressing cells after 72 h in human serum at 37 C
Experimental: as §3

[7] = target: T2, native full length human CB1 receptor …; experiment: cell-based or functional assay; remark: listed apart in the source
[8] = target: T2, native full length human CB1 receptor …; experiment: cell-based or functional assay; remark: listed apart in the source
[9] = target: T2, native full length human CB1 receptor …; experiment: flow cytometry on CB1-expressing cells after 48 h in human serum at 37 C
Experimental: as §3

[10] = target: T2, native full length human CB1 receptor …; experiment: flow cytometry on CB1-expressing cells after 0 h in NHP serum at 37 C
Experimental: as §3

[11] = target: T2, native full length human CB1 receptor …; experiment: flow cytometry, TRex-CHO human CB1 cells; mean of batch 2
Experimental: as §4

[12] = target: T2, native full length human CB1 receptor …; experiment: flow cytometry, TRex-CHO human CB1 cells; mean of batch 3
Experimental: as §4

[13] = target: T3, mouse CB1 (mouse, UniProt P47746 1-473); experiment: flow cytometry on TRex-CHO cells stably transfected with mouse CB1, PE-conjugated anti-human Fc secondary antibody
T3 construct: whole, on cells; also called TRexCHO Mouse CB1
T3 sequence (P47746 whole entry): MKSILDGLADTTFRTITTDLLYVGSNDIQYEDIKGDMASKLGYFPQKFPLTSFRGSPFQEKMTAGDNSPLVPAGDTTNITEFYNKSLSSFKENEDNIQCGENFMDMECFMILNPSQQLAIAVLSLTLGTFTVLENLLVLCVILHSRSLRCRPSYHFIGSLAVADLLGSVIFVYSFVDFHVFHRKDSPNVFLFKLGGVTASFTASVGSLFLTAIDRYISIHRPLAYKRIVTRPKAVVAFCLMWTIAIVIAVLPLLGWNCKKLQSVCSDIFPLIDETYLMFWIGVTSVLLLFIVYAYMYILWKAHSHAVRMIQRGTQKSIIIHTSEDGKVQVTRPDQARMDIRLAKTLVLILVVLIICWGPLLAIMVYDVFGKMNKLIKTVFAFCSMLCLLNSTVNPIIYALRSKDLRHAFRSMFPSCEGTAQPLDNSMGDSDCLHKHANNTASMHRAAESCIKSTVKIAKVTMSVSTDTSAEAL
Experimental: as §1, §2

[14] = target: T2, native full length human CB1 receptor …; experiment: flow cytometry on CB1-expressing cells after 0 h in human serum at 37 C
Experimental: as §3

[15] = target: T2, native full length human CB1 receptor …; experiment: flow cytometry on CB1-expressing cells after 48 h in NHP serum at 37 C
Experimental: as §3

[16] = target: T2, native full length human CB1 receptor …; experiment: flow cytometry, TRex-CHO human CB1 cells; mean of batch 1
Experimental: as §4

[17] = target: T2, native full length human CB1 receptor …; experiment: flow cytometry on TRex-CHO cells with tetracycline inducible human CB1
Experimental: as §4

[18] = target: T2, native full length human CB1 receptor …; experiment: cell-based or functional assay; remark: listed apart in the source
[19] = target: T2, native full length human CB1 receptor …; experiment: flow cytometry on CB1-expressing cells after 24 h in NHP serum at 37 C
Experimental: as §3

T1 sequence (P34972 whole entry): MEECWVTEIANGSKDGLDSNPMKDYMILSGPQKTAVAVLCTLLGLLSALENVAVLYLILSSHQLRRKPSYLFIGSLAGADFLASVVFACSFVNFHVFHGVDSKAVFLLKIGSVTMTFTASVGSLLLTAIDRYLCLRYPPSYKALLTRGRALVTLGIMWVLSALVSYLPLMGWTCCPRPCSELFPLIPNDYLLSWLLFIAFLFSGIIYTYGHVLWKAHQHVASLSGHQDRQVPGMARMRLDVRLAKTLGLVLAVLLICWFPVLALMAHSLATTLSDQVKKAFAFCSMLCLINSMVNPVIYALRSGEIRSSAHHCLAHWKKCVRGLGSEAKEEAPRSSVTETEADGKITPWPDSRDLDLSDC

B1: P1C4-H4-IgG4 (antibody)
heavy: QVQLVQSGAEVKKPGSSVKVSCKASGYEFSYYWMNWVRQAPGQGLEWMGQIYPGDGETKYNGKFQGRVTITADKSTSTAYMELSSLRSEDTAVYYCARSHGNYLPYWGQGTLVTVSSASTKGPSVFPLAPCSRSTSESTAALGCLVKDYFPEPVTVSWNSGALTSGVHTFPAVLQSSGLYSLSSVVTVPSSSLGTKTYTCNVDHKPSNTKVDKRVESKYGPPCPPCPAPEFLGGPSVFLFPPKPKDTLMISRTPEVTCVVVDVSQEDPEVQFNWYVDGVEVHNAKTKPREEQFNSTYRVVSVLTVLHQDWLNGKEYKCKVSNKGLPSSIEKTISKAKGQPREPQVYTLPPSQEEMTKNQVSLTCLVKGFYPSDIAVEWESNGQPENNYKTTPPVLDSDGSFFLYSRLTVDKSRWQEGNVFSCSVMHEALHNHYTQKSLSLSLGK
light: EIVLTQSPATLSLSPGERATLSCRASQSVSSSYLHWYQQKPGQAPRLLIYSTSNLASGIPARFSGSGSGTDFTLTISRLEPEDFAVYYCHQYHRSPPTFGQGTKVEIKRTVAAPSVFIFPPSDEQLKSGTASVVCLLNNFYPREAKVQWKVDNALQSGNSQESVTEQDSKDSTYSLSSTLTLSKADYEKHKVYACEVTHQGLSSPVTKSFNRGEC
- binding result [1]: no binding (tested: 1000 nM)
- Kd [2]: 12 nM
- Kd [3]: 49 nM
- Kd [4]: 26 nM
- cAMP IC50 (nM) CHO-S [n] [5]: 51 nM
- cAMP IC50 (nM) Mean of Batch 1 [n] [5]: 54 nM
- cAMP IC50 (nM) Mean of Batch 2 [n] [5]: 54 nM
- Kd [6]: 15 nM
- cAMP IC50 (nM) after 5 freeze/thaw cycles [7]: 32 nM
- cAMP IC50 (nM) after dialysis to pH 3 and 48 h at 40 C [8]: 139 nM
- cAMP IC50 (nM) after dialysis to pH 9 and 48 h at 40 C [8]: 64 nM
- Kd [9]: 12 nM
- Kd [10]: 20 nM
- Kd [11]: 49 nM
- Kd [12]: 49 nM
- binding result [13]: no binding (tested: 1000 nM)
- Kd [14]: 16 nM
- Kd [15]: 28 nM
- Kd [16]: 51 nM
- EC50 (read off the curve) [17]: ~30 nM
- cAMP IC50 (nM) after 33 days at 4 C [18]: 62 nM
- cAMP IC50 (nM) after 33 days at 40 C [18]: 71 nM
- Kd [19]: 13 nM

Reference: patent publication US20260176352A1 (BIRD ROCK BIO, published 2026)
